From patent US20170072013A1 (MEDINCELL, published 2017)
Square brackets hold non-standard residues; d marks the D form.

T1: human TREK-1 potassium channel expressed in the h-TREK-1/HEK cell line (human, UniProt O95069 1-426)
T1 sequence (looked up): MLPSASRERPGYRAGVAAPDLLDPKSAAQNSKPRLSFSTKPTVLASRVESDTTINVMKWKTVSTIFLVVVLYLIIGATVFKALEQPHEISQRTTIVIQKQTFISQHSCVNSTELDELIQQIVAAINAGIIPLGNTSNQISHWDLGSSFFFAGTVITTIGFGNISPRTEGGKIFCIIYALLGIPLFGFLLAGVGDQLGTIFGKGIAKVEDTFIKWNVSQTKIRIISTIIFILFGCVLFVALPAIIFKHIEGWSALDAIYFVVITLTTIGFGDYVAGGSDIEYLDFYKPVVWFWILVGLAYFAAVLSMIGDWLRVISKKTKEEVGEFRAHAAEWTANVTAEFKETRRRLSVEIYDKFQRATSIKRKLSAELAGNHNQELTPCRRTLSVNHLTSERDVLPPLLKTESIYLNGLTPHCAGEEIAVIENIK

B1: Analog 14 (SEQ ID NO:15), Ac-rlawsvaipaswrplpa-NH2 (peptide)
peptide: Ac-[dR][dL][dA][dW][dS][dV][dA][dI][dP][dA][dS][dW][dR][dP][dL][dP][dA]-NH2
SMILES: CC[C@@H](C)[C@@H](NC(=O)[C@@H](C)NC(=O)[C@H](NC(=O)[C@@H](CO)NC(=O)[C@@H](Cc1c[nH]c2ccccc12)NC(=O)[C@@H](C)NC(=O)[C@@H](CC(C)C)NC(=O)[C@@H](CCCNC(=N)N)NC(C)=O)C(C)C)C(=O)N1CCC[C@@H]1C(=O)N[C@H](C)C(=O)N[C@H](CO)C(=O)N[C@H](Cc1c[nH]c2ccccc12)C(=O)N[C@H](CCCNC(=N)N)C(=O)N1CCC[C@@H]1C(=O)N[C@H](CC(C)C)C(=O)N1CCC[C@@H]1C(=O)N[C@H](C)C(N)=O
B2: Analog 15 (SEQ ID NO:20), c(rlGwsvGipGswrplpa) (peptide)
peptide: cyclo([dR][dL]G[dW][dS][dV]G[dI][dP]G[dS][dW][dR][dP][dL][dP][dA])
SMILES: CC[C@@H](C)[C@H]1NC(=O)CNC(=O)[C@@H](C(C)C)NC(=O)[C@@H](CO)NC(=O)[C@@H](Cc2c[nH]c3ccccc23)NC(=O)CNC(=O)[C@@H](CC(C)C)NC(=O)[C@@H](CCCNC(=N)N)NC(=O)[C@@H](C)NC(=O)[C@H]2CCCN2C(=O)[C@@H](CC(C)C)NC(=O)[C@H]2CCCN2C(=O)[C@@H](CCCNC(=N)N)NC(=O)[C@@H](Cc2c[nH]c3ccccc23)NC(=O)[C@@H](CO)NC(=O)CNC(=O)[C@H]2CCCN2C1=O
B3: Analog 2 (SEQ ID NO:3), Ac-APLPRWSGPIGVSWGLR-NH2 (peptide)
peptide: Ac-APLPRWSGPIGVSWGLR-NH2
B4: Analog 3 (SEQ ID NO:4), Ac-rlGwsvGipGswrplpa-NH2 (peptide)
peptide: Ac-[dR][dL]G[dW][dS][dV]G[dI][dP]G[dS][dW][dR][dP][dL][dP][dA]-NH2
SMILES: CC[C@@H](C)[C@@H](NC(=O)CNC(=O)[C@H](NC(=O)[C@@H](CO)NC(=O)[C@@H](Cc1c[nH]c2ccccc12)NC(=O)CNC(=O)[C@@H](CC(C)C)NC(=O)[C@@H](CCCNC(=N)N)NC(C)=O)C(C)C)C(=O)N1CCC[C@@H]1C(=O)NCC(=O)N[C@H](CO)C(=O)N[C@H](Cc1c[nH]c2ccccc12)C(=O)N[C@H](CCCNC(=N)N)C(=O)N1CCC[C@@H]1C(=O)N[C@H](CC(C)C)C(=O)N1CCC[C@@H]1C(=O)N[C@H](C)C(N)=O
B5: Analog 16 (SEQ ID NO:21), c(rlGwsvGipGswrplparlGwsvGipGswrplpa) (peptide)
peptide: cyclo([dR][dL]G[dW][dS][dV]G[dI][dP]G[dS][dW][dR][dP][dL][dP][dA][dR][dL]G[dW][dS][dV]G[dI][dP]G[dS][dW][dR][dP][dL][dP][dA])
SMILES: CC[C@@H](C)[C@H]1NC(=O)CNC(=O)[C@@H](C(C)C)NC(=O)[C@@H](CO)NC(=O)[C@@H](Cc2c[nH]c3ccccc23)NC(=O)CNC(=O)[C@@H](CC(C)C)NC(=O)[C@@H](CCCNC(=N)N)NC(=O)[C@@H](C)NC(=O)[C@H]2CCCN2C(=O)[C@@H](CC(C)C)NC(=O)[C@H]2CCCN2C(=O)[C@@H](CCCNC(=N)N)NC(=O)[C@@H](Cc2c[nH]c3ccccc23)NC(=O)[C@@H](CO)NC(=O)CNC(=O)[C@H]2CCCN2C(=O)[C@@H]([C@H](C)CC)NC(=O)CNC(=O)[C@@H](C(C)C)NC(=O)[C@@H](CO)NC(=O)[C@@H](Cc2c[nH]c3ccccc23)NC(=O)CNC(=O)[C@@H](CC(C)C)NC(=O)[C@@H](CCCNC(=N)N)NC(=O)[C@@H](C)NC(=O)[C@H]2CCCN2C(=O)[C@@H](CC(C)C)NC(=O)[C@H]2CCCN2C(=O)[C@@H](CCCNC(=N)N)NC(=O)[C@@H](Cc2c[nH]c3ccccc23)NC(=O)[C@@H](CO)NC(=O)CNC(=O)[C@H]2CCCN2C1=O
B6: Analog 8 (SEQ ID NO:9), Ac-rlGwsvGipGswrplpaappppadlrdq-NH2 (peptide)
peptide: Ac-[dR][dL]G[dW][dS][dV]G[dI][dP]G[dS][dW][dR][dP][dL][dP][dA][dA][dP][dP][dP][dP][dA][dD][dL][dR][dD][dQ]-NH2
SMILES: CC[C@@H](C)[C@@H](NC(=O)CNC(=O)[C@H](NC(=O)[C@@H](CO)NC(=O)[C@@H](Cc1c[nH]c2ccccc12)NC(=O)CNC(=O)[C@@H](CC(C)C)NC(=O)[C@@H](CCCNC(=N)N)NC(C)=O)C(C)C)C(=O)N1CCC[C@@H]1C(=O)NCC(=O)N[C@H](CO)C(=O)N[C@H](Cc1c[nH]c2ccccc12)C(=O)N[C@H](CCCNC(=N)N)C(=O)N1CCC[C@@H]1C(=O)N[C@H](CC(C)C)C(=O)N1CCC[C@@H]1C(=O)N[C@H](C)C(=O)N[C@H](C)C(=O)N1CCC[C@@H]1C(=O)N1CCC[C@@H]1C(=O)N1CCC[C@@H]1C(=O)N1CCC[C@@H]1C(=O)N[C@H](C)C(=O)N[C@H](CC(=O)O)C(=O)N[C@H](CC(C)C)C(=O)N[C@H](CCCNC(=N)N)C(=O)N[C@H](CC(=O)O)C(=O)N[C@H](CCC(N)=O)C(N)=O
B7: Analog 13 (SEQ ID NO:14), Ac-APLPRWSAPIAVSWALR-NH2 (peptide)
peptide: Ac-APLPRWSAPIAVSWALR-NH2

molecular target: T1, human TREK-1 potassium channel …; test: cell-based or functional assay

Point of comparison: B5, “IC50 of TREK-1 current inhibition (dose-response, whole cell patch clamp, 0 mV)” value 0.001 nM. Against it:
- B1 — 4-fold higher, 0.004 nM
- B2 — 40-fold higher, 0.04 nM
- B3 — 60000-fold higher, 60 nM
- B4 — 12000-fold higher, 11.5 nM
- B6 — 9900-fold higher, 9.95 nM
- B7 — 40-fold higher, 0.04 nM

Point of comparison: B4, “fold higher affinity for TREK-1 channels than spadin, inferred from the IC50 of current inhibition” value 6 fold. Against it:
- B6 — the same, 6 fold
